In the experiment the target is T1, RbABC (Homo sapiens, UniProt P06400).
T1 construct: His6-RbABC (RESIDUES 380-929); made in house; host or cells: E. coli
T1 sequence (P06400 whole entry, looked up): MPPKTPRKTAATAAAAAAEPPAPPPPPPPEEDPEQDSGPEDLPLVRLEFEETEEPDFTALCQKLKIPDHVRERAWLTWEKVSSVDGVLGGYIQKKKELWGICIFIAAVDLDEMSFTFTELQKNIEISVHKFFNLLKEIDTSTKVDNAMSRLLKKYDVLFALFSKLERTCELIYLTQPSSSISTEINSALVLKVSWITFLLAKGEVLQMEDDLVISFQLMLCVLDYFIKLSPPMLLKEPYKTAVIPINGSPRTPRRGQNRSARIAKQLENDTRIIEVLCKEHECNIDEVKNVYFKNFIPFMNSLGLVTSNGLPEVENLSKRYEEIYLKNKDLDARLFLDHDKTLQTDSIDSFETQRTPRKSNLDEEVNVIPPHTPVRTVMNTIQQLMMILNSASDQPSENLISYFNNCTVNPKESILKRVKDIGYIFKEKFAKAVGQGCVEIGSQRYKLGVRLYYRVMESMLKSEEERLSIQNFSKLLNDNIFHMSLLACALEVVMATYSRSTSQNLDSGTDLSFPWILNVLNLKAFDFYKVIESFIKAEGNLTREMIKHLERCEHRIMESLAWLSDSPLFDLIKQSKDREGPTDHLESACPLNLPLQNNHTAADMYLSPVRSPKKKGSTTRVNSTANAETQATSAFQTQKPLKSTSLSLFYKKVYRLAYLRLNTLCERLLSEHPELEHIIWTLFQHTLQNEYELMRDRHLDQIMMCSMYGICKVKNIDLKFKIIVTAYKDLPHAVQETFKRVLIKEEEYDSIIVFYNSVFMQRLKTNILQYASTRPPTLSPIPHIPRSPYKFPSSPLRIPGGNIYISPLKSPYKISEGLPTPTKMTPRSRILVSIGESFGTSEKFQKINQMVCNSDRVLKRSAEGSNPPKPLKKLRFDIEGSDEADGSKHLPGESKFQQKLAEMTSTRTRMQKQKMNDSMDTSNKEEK
The experiment in a line: RbABC. The source says:
Table printed on a drawing sheet, FIG. 2B
The patent's description of the figure: FIG. 2.
First copying reader's note: Binding constants of E2F fragments to the Rb constructs RbAB and RbABC; the error is printed in the same cell as the value.
Where the first naming reader finds the target: head: RbABC

B1: E2F(243-437): Recombinant human E2F1(243-437) expressed in E. coli (protein, UniProt Q01094 243-437, looked up, fragment)
chain: LAYVTCQDLRSIADPAEQMVMVIKAPPETQLQAVDSSENFQISLKSKQGPIDVFLCPEETVGGISPGKTPSQEVTSEEENRATDSATIVSPPPSSPPSSLTTDPSQSLLSLEQEPLLSRMGSLRAPVDEDRLSPLVAADSLLEHVREDFSGLLPEEFISLSPPHEALDYHFGLEEGEGIRDLFDCDFGDLTPLDF
For B1, the dissociation constant Kd – broadly, the free concentration of one partner at which half of the binding sites on the other are occupied at equilibrium, for simple one-to-one binding – was under 10 nM.

These data come from patent publication US20060234906A1, “Structure of a complex of retinoblastoma protein bound to e2f, and uses thereof” (priority 2002, published 2006).
